Results as given in patent publication US7067474B1, “Agents for treating human illnesses based on β-catenin, and the production and use thereof” (Max-Delbruck-Centrum fur Molekulare Medizin, priority 1998, dated 2006).

T1: APC (15 amino acid repeats) (Homo sapiens, UniProt P25054)
T1 construct: of human APC for the amino acids His1012–Glu1215 (APC 15 amino acid repeats); expressed in transfected cells; host or cells: yeast (two-hybrid, Matchmaker, Clontech)
T1 sequence (P25054 1006-1209 limits assumed): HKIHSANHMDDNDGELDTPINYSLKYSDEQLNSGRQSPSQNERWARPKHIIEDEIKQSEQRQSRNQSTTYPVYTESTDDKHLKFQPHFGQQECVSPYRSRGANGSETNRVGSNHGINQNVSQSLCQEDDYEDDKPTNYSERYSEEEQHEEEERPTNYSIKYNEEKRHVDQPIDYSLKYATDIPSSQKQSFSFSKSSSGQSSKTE

T2: APC (20 amino acid repeats) (Homo sapiens, UniProt P25054)
T2 construct: for the amino acids Ser1259Asp 1400 (APC 20 amino acid repeats); expressed in transfected cells; host or cells: yeast (two-hybrid, Matchmaker, Clontech)
T2 sequence (P25054 1253-1394 limits assumed): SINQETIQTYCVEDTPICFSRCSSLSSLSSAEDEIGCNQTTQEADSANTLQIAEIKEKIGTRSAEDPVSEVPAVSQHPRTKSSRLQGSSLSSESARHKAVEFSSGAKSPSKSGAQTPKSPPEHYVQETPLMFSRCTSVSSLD


Legend:
[1] = target: conductin amino acids Ala342-Arg465 fused to Lex-A (vector BTM 116) (UniProt P0A7C2); assay: yeast 2-hybrid, β-galactosidase reporter; percent of wild type β-catenin
Chain of conductin amino acids Ala342-Arg465 fused to Lex-A (vector BTM 116) (P0A7C2 other isoform, or with tags, fused parts or gaps limits assumed, form in doubt): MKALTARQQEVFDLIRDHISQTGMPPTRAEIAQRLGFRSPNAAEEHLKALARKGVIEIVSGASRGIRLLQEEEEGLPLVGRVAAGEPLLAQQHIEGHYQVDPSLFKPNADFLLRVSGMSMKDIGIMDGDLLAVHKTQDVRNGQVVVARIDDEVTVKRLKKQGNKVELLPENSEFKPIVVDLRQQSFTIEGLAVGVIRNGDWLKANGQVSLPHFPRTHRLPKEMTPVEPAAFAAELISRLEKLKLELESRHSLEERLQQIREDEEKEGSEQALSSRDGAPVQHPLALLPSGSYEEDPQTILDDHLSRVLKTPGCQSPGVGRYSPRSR

[2] = target: human APC amino acids Ser1259-Asp1400 (APC 20 amino acid repeats) fused to Lex-A (vector BTM 116) (human); assay: as above
Chain of human APC amino acids Ser1259-Asp1400 (APC 20 amino acid repeats) fused to Lex-A (vector BTM 116) (human) (P0A7C2 other isoform, or with tags, fused parts or gaps limits assumed, form in doubt): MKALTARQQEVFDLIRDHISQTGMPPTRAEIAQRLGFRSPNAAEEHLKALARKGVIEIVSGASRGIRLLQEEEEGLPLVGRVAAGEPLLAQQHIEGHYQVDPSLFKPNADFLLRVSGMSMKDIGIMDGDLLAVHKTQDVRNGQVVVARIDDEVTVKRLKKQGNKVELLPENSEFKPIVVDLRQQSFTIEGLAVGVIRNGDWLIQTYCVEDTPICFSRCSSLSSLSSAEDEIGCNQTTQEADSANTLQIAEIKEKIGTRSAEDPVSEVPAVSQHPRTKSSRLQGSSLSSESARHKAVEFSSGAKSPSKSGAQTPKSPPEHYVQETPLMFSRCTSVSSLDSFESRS

E-cadherin = target: T3, E-cadherin (Mus musculus, UniProt P09803); assay: yeast 2-hybrid: interaction of β-catenin mutants with E-cadherin; format: binding; conditions: alanine mutants
T3 construct: E-cadherin for the amino acids Gin773–Asp884 (cytoplasmatic domain); expressed in transfected cells; host or cells: yeast (two-hybrid, Matchmaker, Clontech)
T3 sequence (P09803 773-884): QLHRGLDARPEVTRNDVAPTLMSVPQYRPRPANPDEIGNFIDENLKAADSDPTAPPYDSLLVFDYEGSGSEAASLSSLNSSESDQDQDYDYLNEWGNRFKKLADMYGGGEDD
How it was run: (§1)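 Alanine-substituted human β-catenin mutants (armadillo repeat 3 to C-terminus, from Leu218) fused to Gal4 activation domain; partner fragments fused to LexA: E-cadherin Gln773–Asp884, APC His1012–Glu1215 or Ser1259–Asp1400, conductin Ala342–Arg465. Interaction quantified by β-galactosidase reporter activity in yeast.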

conductin = target: T4, conductin (Mus musculus, UniProt O88566); assay: yeast 2-hybrid: interaction of β-catenin mutants with conductin; format: binding; conditions: yeast 2-hybrid, alanine mutants
T4 construct: conductin for the amino acids Ala342–ARG465; expressed in transfected cells; host or cells: yeast (two-hybrid, Matchmaker, Clontech)
T4 sequence (O88566 343-465 limits assumed): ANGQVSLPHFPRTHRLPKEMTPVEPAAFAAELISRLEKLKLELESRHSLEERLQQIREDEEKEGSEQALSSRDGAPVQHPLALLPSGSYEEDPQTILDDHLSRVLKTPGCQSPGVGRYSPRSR
How it was run: as §1

LEF-1 = target: T5, LEF-1 (Mus musculus, UniProt P27782); assay: yeast 2-hybrid: interaction of β-catenin mutants with LEF-1; format: binding; conditions: yeast 2-hybrid, alanine mutants
T5 construct: the cDNA of LEF-1 for the amino acids 1–99; expressed in transfected cells; host or cells: yeast (two-hybrid, Matchmaker, Clontech)
T5 sequence (P27782 1-99): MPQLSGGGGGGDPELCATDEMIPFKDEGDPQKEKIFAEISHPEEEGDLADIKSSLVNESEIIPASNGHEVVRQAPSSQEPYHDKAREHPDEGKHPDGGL

[3] = target: T1, APC (15 amino acid repeats); assay: yeast 2-hybrid: interaction of β-catenin mutants with APC 15 amino acid repeats; format: binding; conditions: yeast 2-hybrid, alanine mutants
How it was run: as §1

[4] = target: T2, APC (20 amino acid repeats); assay: yeast 2-hybrid: interaction of β-catenin mutants with APC 20 amino acid repeats; format: binding; conditions: yeast 2-hybrid, alanine mutants
How it was run: as §1

Molecule	share of the interaction with wild type β-catenin in percent [1] [%]	share of the interaction with wild type β-catenin in percent [2] [%]	Interaction With E-Cadherin, share of wild type β-catenin interaction (E-cadherin)	Interaction With Conductin, share of wild type β-catenin interaction (conductin) [%]	Interaction With LEF-1, share of wild type β-catenin interaction (LEF-1)	Interaction With APC-15, share of wild type β-catenin interaction [3]	Interaction With APC-20, share of wild type β-catenin interaction [4]
human β-catenin (Leu218-Leu781) mutant Lys 292 to alanine, Gal-4 activation domain fusion (from UniProt P35222 218-781)	5	28	–	–	–	–	–
human β-catenin (Leu218-Leu781) mutant Phe 253 to alanine, Gal-4 activation domain fusion (from UniProt P35222 218-781)	17	40	–	–	–	–	–
Lys 394: human β-catenin mutant, Lys 394 substituted by alanine (arm 7) (protein, left off: large carriers; small tags and cut ends) LHNLSHHREGLLAIFKSGGIPALVKMLGSPVDSVLFYAITTLHNLLLHQEGAKMAVRLAGGLQKMVALLNKTNVKFLAITTDCLQILAYGNQESKLIILASGGPQALVNIMRTYTYEKLLWTTSRVLKVLSVCSSNKPAIVEAGGMQALGLHLTDPSQRLVQNCLWTLRNLSDAATAQEGMEGLLGTLVQLLGSDDINVVTCAAGILSNLTCNNYKNKMMVCQVGGIEALVRTVLRAGDREDITEPAICALRHLTSRHQEAEMAQNAVRLHYGLPVVVKLLHPPSHWPLIKATVGLIRNLALCPANHAPLREQGAIPRLVQLLVRAHQDTQRRTSMGGTQQQFVEGVRMEEIVEGCTGALHILARDVHNRIVIRGLNTIPLFVQLLYSPIENIQRVAAGVLCELAQDKEAAEAIEAEGATAPLTELLHSRNEGVATYAAAVLFRMSEDKPQDYKKRLSVELTSSLFRTEPMAWNETADLGLDIGAQGEPLGYRQDDPSYRSFHSGGYGQDALGMDPMMEHEMGGHHPGADYPVDGLPDLGHAQDLMDGLPPGDSNQLAWFDTDL	–	–	— (Interactions marked by — correspond to 60–100% of the wild type interaction)	42	— (Interactions marked by — correspond to 60–100% of the wild type interaction)	— (Interactions marked by — correspond to 60–100% of the wild type interaction)	— (Interactions marked by — correspond to 60–100% of the wild type interaction)
Arg 457: human β-catenin mutant, Arg 457 substituted by alanine (arm 8) (protein, left off: large carriers; small tags and cut ends) LHNLSHHREGLLAIFKSGGIPALVKMLGSPVDSVLFYAITTLHNLLLHQEGAKMAVRLAGGLQKMVALLNKTNVKFLAITTDCLQILAYGNQESKLIILASGGPQALVNIMRTYTYEKLLWTTSRVLKVLSVCSSNKPAIVEAGGMQALGLHLTDPSQRLVQNCLWTLRNLSDAATKQEGMEGLLGTLVQLLGSDDINVVTCAAGILSNLTCNNYKNKMMVCQVGGIEALVRTVLRAGDAEDITEPAICALRHLTSRHQEAEMAQNAVRLHYGLPVVVKLLHPPSHWPLIKATVGLIRNLALCPANHAPLREQGAIPRLVQLLVRAHQDTQRRTSMGGTQQQFVEGVRMEEIVEGCTGALHILARDVHNRIVIRGLNTIPLFVQLLYSPIENIQRVAAGVLCELAQDKEAAEAIEAEGATAPLTELLHSRNEGVATYAAAVLFRMSEDKPQDYKKRLSVELTSSLFRTEPMAWNETADLGLDIGAQGEPLGYRQDDPSYRSFHSGGYGQDALGMDPMMEHEMGGHHPGADYPVDGLPDLGHAQDLMDGLPPGDSNQLAWFDTDL	–	–	— (Interactions marked by — correspond to 60–100% of the wild type interaction)	36	— (Interactions marked by — correspond to 60–100% of the wild type interaction)	— (Interactions marked by — correspond to 60–100% of the wild type interaction)	— (Interactions marked by — correspond to 60–100% of the wild type interaction)
